{
  "source": "the nanobody polyreactivity screen of Harvey et al. (2022)",
  "data": [
    {"experiment": "yeast display, Sf9 membrane polyspecificity reagent, FACS + sequencing; frameworks hold sequencing errors", "method_in_brief": "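Polyreactivity labels are assigned by the sorting gate from which each nanobody was recovered. The gates were low and high (top ~1%), set on anti-HA fluorescence for expression and streptavidin fluorescence for reagent binding. Before sorting, galactose-induced (36–48 hours) yeast display cells were stained for 1 hour at 4 °C with 10% biotinylated, detergent-solubilized Sf9 membrane reagent.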", "values": [
      {"sequence": "QVQLVESGGGLVQAGGSLRLSCAASGSIFGSYAMGWYRQAPGKERELVAAITSGGSTYADSVKGPFTISRDNPNKTVYLQMNSQKPDDTAVYYSNAKFYHSTSTLVQSEYDYWGQGTQVSVSS", "polyreactivity (PSR sort gate)": "low polyreactivity"},
      {"sequence": "QVQLVESGGGLVQAGGSLRLSCAASGSIFGSYTMGWYRQAPGKEREFVAAINFSGGRTYYADSVKGRFTISRDNAKNTVYLQMNSLKPEDTAVYYCARRWRQARYDYWGQGTQVTVSS", "polyreactivity (PSR sort gate)": "high polyreactivity"},
      {"sequence": "QVQLVESGGGLVQAGGSLRLSCAASGSIFGTNAMGRYRPAPGKERELVAAISWSGTSTYYADSVKGRFTISRDNAKNTVYLQMNSLKPEDTAVYYCAKRSGYSRGFYYWGQGTQVTVSS", "polyreactivity (PSR sort gate)": "high polyreactivity"},
      {"sequence": "QVQLVESGGGLVQAGGSLRLSCAASGSIFGTNAMGWYRQAPGKEREMVAAISLSTGSTYYADSVKGRFTISRDKAKNTVYLQMNSLKPEDTAVYSCAAYYVTPIYYYLGQGTQVTVSS", "polyreactivity (PSR sort gate)": "low polyreactivity"},
      {"sequence": "QVQLVESGGGLVQAGGSLRLSCAASGSIFGTNTMGWYRQAAGKERVLVAAIRLSDSSTYYADSVKGRFTISRDNAKKTVYLQMNSLKPGDTAVYYCAVDYRAYHYYRYDYWGQGTQVTVSS", "polyreactivity (PSR sort gate)": "low polyreactivity"},
      {"sequence": "QVQLVESGGGLVQAGGSLRLSCAASGSIFGTNTMGWYRQAPGKERELVAAISGGGSTYYADSVKGRFTISRDNAKNTVYLQMNSLKPEDTAVYYCAVRSLRVDKYGYWGQGTQVTVSS", "polyreactivity (PSR sort gate)": "high polyreactivity"},
      {"sequence": "QVQLVESGGGLVQAGGSLRLSCAASGSIFGTYAMGWYRQAPGKERELVARITRGVSTNYADSVQGRFTISRDNAKNTVYLQMNSLKPEDTAVYYCAAESGNRYEYWGQGTQVTVSS", "polyreactivity (PSR sort gate)": "low polyreactivity"},
      {"sequence": "QVQLVESGGGLVQAGGSLRLSCAASGSIFGVNAMGWYRQAPGKERELVAAISVSGGRTYYADSVKGRFTISRDNAKNTVYLLMNSLKPEDTAVYYCAATTYIWPYDYWGQGTQVTVSS", "polyreactivity (PSR sort gate)": "low polyreactivity"},
      {"sequence": "QVQLVESGGGLVQAGGSLRLSCAASGSIFGVNAMGWYRQAPGKERELVAGITTGGSTKYADSVKGRFTISRDNAKNTVYLQMNSLKPEDTAVYYCAATGKWYHFYHYGYWGQGTQVTVSS", "polyreactivity (PSR sort gate)": "low polyreactivity"},
      {"sequence": "QVQLVESGGGLVQAGGSLRLSCAASGSIFGVNAMGWYRQTPGKERELVARINWSSGRTYYADSVKGRFTISRDNAKNTVYLQMNSLKQEDTAVYYCAAAYWRPGVRFFGPYDYWGQGTQVTVSS", "polyreactivity (PSR sort gate)": "high polyreactivity"},
      {"sequence": "QVQLVESGGGLVQAGGSLRLSCAASGSIFGVYAMGWYRQAPGKERELVARISSGGGSTYYADSVKGRFTISRDNAKNTVYLQMNSLKPEDTAVYYCATRYYGYYPVNYWGQGTQVTVSS", "polyreactivity (PSR sort gate)": "high polyreactivity"},
      {"sequence": "QVQLVESGGGLVQAGGSLRLSCAASGSIFGVYAMRWYRQAPGKERELVATISRSGAITYYADSVKGRFTISRDNAKNTVYLQMNSLKPEDTAVYYCAADFFSRDWGQGTQVTVSS", "polyreactivity (PSR sort gate)": "low polyreactivity"},
      {"sequence": "QVQLVESGGGLVQAGGSLRLSCAASGSIFGVYTLGWYRQAPGKERELVAAISGSGGSTSYADSVKGRFTISRDNAKNTVYLQMTSLKPEDTAGYYCATRFPNIPPYDSLGQGTQVTVSS", "polyreactivity (PSR sort gate)": "low polyreactivity"},
      {"sequence": "QVQLVESGGGLVQAGGSLRLSCAASGSIFGVYTMGWYRQAPGKERELVAAIRGVGSTNYADSVKGRFTISRDNAKNTVYLQMNSLKPEDTAVYYCASRYAYGMWGQGTQVTVSS", "polyreactivity (PSR sort gate)": "low polyreactivity"},
      {"sequence": "QVQLVESGGGLVQAGGSLRLSCAASGSIFGVYTMGWYRQAPWKERELVAAISRNGGSTYYEDSVKGRFTISRDNAKNNVYLQMNSLKPEDTAVYYCATSTSRRYGSRHNYWGQGTQVTVSS", "polyreactivity (PSR sort gate)": "high polyreactivity"},
      {"sequence": "QVQLVESGGGLVQAGGSLRLSCAASGSIFGWYAMGWYRQAPGKERELVAAITFSSVSTYYADSVKGRFTISRDNAKNTVYLQMNSLKPEDTAVYYCAAVVYYTFDYWGQGTQVTVSS", "polyreactivity (PSR sort gate)": "low polyreactivity"},
      {"sequence": "QVQLVESGGGLVQAGGSLRLSCAASGSIFGWYAMGWYRQAPGTERELVAAIRRGGSTNYADSVKGRFTISRDNAKNTVYLQMNSLKPEDTAVYYCAAGKSGYSKRIFRYSFDYWGQGTQVTVSS", "polyreactivity (PSR sort gate)": "high polyreactivity"},
      {"sequence": "QVQLVESGGGLVQAGGSLRLSCAASGSIFGYAMGWYRQAPGKERELVAAISFSGVSTYYADSVKGRFTISRDNAKNTVYLQMNSLKPEDTAVYYCNAYSDGDEDYWGQGTQVTVSS", "polyreactivity (PSR sort gate)": "low polyreactivity"},
      {"sequence": "QVQLVESGGGLVQAGGSLRLSCAASGSIFGYNAMGWSRQAPGKERELVAAITGSGGSTYYADSVKGRFTISRDNAKNTVYLLMNILKPEDTAVYYCADDLVGGPLGYWDYDYWGQGTQVTVSS", "polyreactivity (PSR sort gate)": "low polyreactivity"},
      {"sequence": "QVQLVESGGGLVQAGGSLRLSCAASGSIFGYNAMGWYRQAPGKERELVAAISNDGDNTYYADSVKGRFTISRDNAKNTVYLQMNSLKPEDTAVYYCATEYPLTYAYYYYDGGDYWGQGTQVTVSS", "polyreactivity (PSR sort gate)": "low polyreactivity"},
      {"sequence": "QVQLVESGGGLVQAGGSLRLSCAASGSIFGYNTMGWYRQAPGKERELVATITRGGSTHYADSVKGRFTISRDNAKNTVYLQMNSLKPEDTAVYYCAATRLSYVRLYRFSQQYYYWGQGTQVTVSS", "polyreactivity (PSR sort gate)": "high polyreactivity"},
      {"sequence": "QVQLVESGGGLVQAGGSLRLSCAASGSIFGYNVMGWYRQAPGKERELVAGITSGGSTNYADSVKGRFTISRDNAKNTVYLQMNSLKPEDTAVYYCNAEGVFGDGRSGFYWYDYWGQGTQVTVSS", "polyreactivity (PSR sort gate)": "low polyreactivity"},
      {"sequence": "QVQLVESGGGLVQAGGSLRLSCAASGSIFGYTTMGWYRQGPGKERELVAAINWSDGHTNYADSVKGRFTISRDNANNTVYLQLNSLKPEDTAVYYCAADWYRSSWTYNYWGQGSQVTVSS", "polyreactivity (PSR sort gate)": "low polyreactivity"},
      {"sequence": "QVQLVESGGGLVQAGGSLRLSCAASGSIFGYYAMGWYRQAPGKEREFVAAISSRKDSTYADSVKGRFTISRDNAKNTVYLQMNSLKPEDTAVYYCAASTFRLTYAGHSYDYWGQGTQVTVSS", "polyreactivity (PSR sort gate)": "high polyreactivity"},
      {"sequence": "QVQLVESGGGLVQAGGSLRLSCAASGSIFGYYAMGWYRQAPGKERELVAAISGSGGSTYYADSVKGRFTMSRDNAKNTVYLQMNSLKPEDTAVYYCARVRGGYDKMYYWGQGTQVTVSS", "polyreactivity (PSR sort gate)": "high polyreactivity"},
      {"sequence": "QVQLVESGGGLVQAGGSLRLSCAASGSIFGYYAMGWYRQAPGKERELVAAISSSGASTYYADSVKGRFTISRDNAKNTVYLQMNSLKPEDTAVYYCNAARRYPTRGGYWGQGTQVTVSS", "polyreactivity (PSR sort gate)": "high polyreactivity"},
      {"sequence": "QVQLVESGGGLVQAGGSLRLSCAASGSIFGYYAMGWYRQTPGKERELVAAIRWRGGRTYYADSVKGRFTISRDNAKNTVYLQMNSLKPEDTAVYYCNTRRTGRRSTTPGDYWGQGTQVTVSS", "polyreactivity (PSR sort gate)": "high polyreactivity"},
      {"sequence": "QVQLVESGGGLVQAGGSLRLSCAASGSIFGYYSMGCYRQAPGKERELVATITFGGGSTYYADSVKGRFTISRDNAKNTVYLQMNSLKPEDTAVYYCAADSGYLGFYGDEYSWGQGTQVTVSS", "polyreactivity (PSR sort gate)": "low polyreactivity"},
      {"sequence": "QVQLVESGGGLVQAGGSLRLSCAASGSIFGYYSMGWYRQAPGKERELVASITSGDSTNYADSVKGRFTISRDNAKNTVYLQMNSLKPEDTAVDYCNTERGYYDEYDYWGQGTQVTVSS", "polyreactivity (PSR sort gate)": "low polyreactivity"},
      {"sequence": "QVQLVESGGGLVQAGGSLRLSCAASGSIFGYYTMGWYRQAPGKERELVAAISKNGGSTYYADSVKGRFTISRDNAKNTVYLQMNSLKPEDTAVYYCAAEYTRKGVSGSGYDYWGQGTQVTVSS", "polyreactivity (PSR sort gate)": "low polyreactivity"},
      {"sequence": "QVQLVESGGGLVQAGGSLRLSCAASGSIFGYYTMGWYRQAPGKERELVAAISSSGGRTYYADSVKGRFTISRDNAKNTVYLQLNSLKPEDTAVYYCAAVPIKRGLILGDRGYNYWGQGTQVTVSS", "polyreactivity (PSR sort gate)": "high polyreactivity"},
      {"sequence": "QVQLVESGGGLVQAGGSLRLSCAASGSIFHDYAMGWYRQAPGKEREMVAAIRWSGGSTYYADSVKGRFTISRDNAKNTVYLQMNSLKREETAVYYCNAVTFGRDNVQLVKFGYWGQGTQVTVSS", "polyreactivity (PSR sort gate)": "low polyreactivity"},
      {"sequence": "QVQLVESGGGLVQAGGSLRLSCAASGSIFHFYAMGWYRQAPGKERELVAAITSGTSTYYADSVKGRFTISRDNAKNTVFLQMNSLKPEDTAVYYCAAEASHYYYNAYPSYGGSDYWGQGTQVTVSS", "polyreactivity (PSR sort gate)": "low polyreactivity"},
      {"sequence": "QVQLVESGGGLVQAGGSLRLSCAASGSIFHGYAMGWYRQAPGKERELVAAISKSGGRTYYADSVKGRFTISRDNAKNTVYLQMNSLKPEDTAVYYCAAPATYKYDYWGQGTQVTVSS", "polyreactivity (PSR sort gate)": "high polyreactivity"},
      {"sequence": "QVQLVESGGGLVQAGGSLRLSCAASGSIFHGYAMGWYRTAPGKERELVAAISYTGGRTYYADSVKGRFTISRDNAMNTVYLQMNSLKPEDTAVYYCAAHDYWGQGTQVTVSS", "polyreactivity (PSR sort gate)": "high polyreactivity"},
      {"sequence": "QVQLVESGGGLVQAGGSLRLSCAASGSIFHKNAMGWYIQAPGKERELVARITSSSGSTYYADSVKGRFTISRDNAKNTVYLQMNSLKPEDTAVYYCNASPTTTPNFWRYDYWGQGTQVTVSS", "polyreactivity (PSR sort gate)": "high polyreactivity"},
      {"sequence": "QVQLVESGGGLVQAGGSLRLSCAASGSIFHLYAMGWYRQATGKERELVAAISWSGGSTYYADSVKGRFTISRDNAKNTVYLQMNSLKPEDTAVYYCAAEYYYQFYDYPYGYEYWGQGTQVTVSS", "polyreactivity (PSR sort gate)": "high polyreactivity"},
      {"sequence": "QVQLVESGGGLVQAGGSLRLSCAASGSIFHPNAMGWYRQAPGKERELVAAITQSGATTYYADSVKGRFTISRDNAKNTVYLQMNSLKPEDTAVYYCAAEFTYGHHDYWGQGTQVTVSS", "polyreactivity (PSR sort gate)": "low polyreactivity"},
      {"sequence": "QVQLVESGGGLVQAGGSLRLSCAASGSIFHPYAMGWSRQAPGKERELVASISKRGGSTYYADSVKGRFTISRDNAKNTVYLQMNSLKPEDTAVYYCAKLYTIGYDYWGQGTQVTVSS", "polyreactivity (PSR sort gate)": "low polyreactivity"},
      {"sequence": "QVQLVESGGGLVQAGGSLRLSCAASGSIFHTYAMGWYIQAPGKERELVAAITVSGGDTYYADSVKGRFTISRDNEKNNVYLQMNSLKPEDTAVYYCAVDTTTSYTVAYDYWGQGTQVSVSS", "polyreactivity (PSR sort gate)": "low polyreactivity"},
      {"sequence": "QVQLVESGGGLVQAGGSLRLSCAASGSIFHVNAMGWYRQAPGKERELVAGISDGGSTYYADSVKGRFTISRDNAKNTVYLQMNSLKPEDTAVYYCAAESEQWYSYVLSYDWEYDYWGQGTQVTVSS", "polyreactivity (PSR sort gate)": "low polyreactivity"},
      {"sequence": "QVQLVESGGGLVQAGGSLRLSCAASGSIFHVNARGRYRQAPGKERELVAGISDGGSTYYADSVKGRFTISRDNAKNTVYLQMNSLKPEDTGVYYCAAESEQWYSYVLSYDWEYDYWGQGTQVTVSS", "polyreactivity (PSR sort gate)": "low polyreactivity"},
      {"sequence": "QVQLVESGGGLVQAGGSLRLSCAASGSIFHYNAMGWYRQAPGKEREFVAVISKSSGSTFYADSVKGRLTISRDNAKNTVYLQMNSLKPEDTAVYYCNRVTKRYRKIGNYWGQGTQVTVSS", "polyreactivity (PSR sort gate)": "high polyreactivity"}
    ]}
  ]
}
